Test results reported in US9907791B2, “Ron inhibitors for use in preventing and treating bone loss” (UNIVERSITY OF UTAH RESEARCH FOUNDATION, priority 2014, dated 2018).

Key:
[1] = test system: PyMT control tumor cells; assay: Intratibial PyMT control tumor-induced osteolysis; format: in vivo, mice
Source text: All procedures involving mice and experimental protocols were approved by the Institutional Animal Care and Use Committee (IACUC) of the University of Utah. The RonTK−/− mice which reside on the FVB background, were crossed with NOD.SCID mice for an immune-compromised mouse model. As a control, wild-type FVB mice were also crossed with NOD.SCID mice. The STK−/− mice, which are on a C57BL/6 background, were compared to wild-type C57BL/6 mice as controls. Mice for all experiments were 6 to 8 weeks of age. For intratibial injections, 1×10^5 (PyMTor DU4475) or 3×10^5 (MDA-MB-231) tumor cells were resuspended in 10 μL matrigel and injected into the right tibia of anesthetized female FVB (PyMT) or NOD.SCID mice carrying various alleles of RON. Osteolysis was assessed by X-ray radiography. Dissected hindlimbs from mice sacrificed at the final time point in each experiment were placed in the Kodak In-vivo Multispectral Imaging System FX and exposed to X-ray radiography at 35 kV for 100 sec. Excess tumor tissue was removed from the bones prior to X-ray. Osteolytic lesions were quantified using Image J software (NCBI). All images were compared to the contralateral leg as an internal control.
For in vivo experiments, the OSI-296 inhibitor was dissolved in 40% Trappsol with 0.01 M HCl, and mice were treated at a concentration of 200 mg/kg daily by oral gavage. […]

[2] = test system: bone marrow osteoclasts; assay: Osteoclast resorption assay; format: cell-based, mice; conditions: WT osteoclasts, inhibitors 10 μM or muRANK-Fc 10 μg/mL daily day 9 to 12
Protocol: Bone marrow osteoclasts were generated from 6 to 8 week old WT and RonTK−/− mice. Briefly, bone marrow was isolated from hindlimb bones and plated in α-MEM media containing 10% heat-inactivated fetal bovine serum (FBS, Sigma, St. Louis, Mo.), 100 units/mL penicillin-streptomycin (Hyclone), and 33 ng/mL human macrophage colony-stimulating factor (hM-CSF) (PeproTech, Rocky Hill, N.J.) for 24 hours. Non-adherent cells were collected and frozen for later use. To assess resorption activity, bone marrow precursor cells were thawed and seeded at a density of 1×10^5 cells per well in BioCoat Osteologic slides (BD Biosciences, San Jose, Calif.) in α-MEM media containing 10% FBS and antibiotics. After adhering overnight, media was removed and media containing 33 ng/mL hM-CSF and 9 ng/mL muRANKL (R & D systems, Minneapolis, Minn.) was added. The medium was changed every 3 days depending on acidification, and the assay was terminated as indicated. Recombinant human MSP was prepared and added daily as indicated. Cells were removed with 6% bleach and slides were viewed microscopically using phase-contrast with 20× magnification. Osteolytic resorption area within 5 representative fields was determined using Image J software, experiments were performed in triplicate. Recombinant MSP was prepared as follows (to be described in detail elsewhere): Concentrated, serum-free media from an MCF7 cell line engineered to overexpress MSP was cleaved with kallikrein (Invitrogen, Waltham, Mass.; 4 ng of kallikrein/1 μg of supernatant protein at 37° C. for 2.5 hours). The reaction was diluted to 20 mL with 10 mM sodium phosphate, pH 7.4 and loaded onto a 5 mL HiTrap heparin column (Millipore, Billerica, Mass.) equilibrated with 20 mL of 10 mM sodium phosphate, pH 7.4, at a rate of 1 mL/min. The column was washed with 10 mL of 10 mM sodium phosphate, pH 7.4, at a rate of 1 mL/min. […]

[3] = test system: c-Src; assay: Western blot of osteoclast lysates, phospho-Src; format: cell-based, mice
Protocol: Cells were serum starved (0.5% FBS) for 3 hours prior to lysate collection. Inhibitors were added 1 hour prior to lysis and MSP was added 15 min prior to lysis when indicated. Cells were washed with 1×PBS and harvested in lysis buffer (25 mM Tris-HCl, pH 7.5, 0.42 M NaCl, 1.5 mM MgCl2, 0.5 mM EDTA, 1 mM DTT, 25% sucrose, and 0.1% Triton X-100) plus 100× protease arrest (Bioscience, Bozeman, Mont.) and 100× orthovanadate. Primary antibodies used for immunoblotting include: anti-MSP (Santa Cruz, sc-6090, Dallas, Tex.) at a 1:250 dilution, anti-pan Akt (Cell Signaling, #4691S, Beverly, Mass.) at a 1:1000 dilution, anti-pan Erk (Cell Signaling, #4695, Beverly, Mass.) at a 1:1000 dilution, anti-phospho Akt (Cell Signaling, #9271 L, Beverly, Mass.) at a 1:500 dilution, anti-phospho Erk (Cell Signaling, #4370S, Beverly, Mass.) at a 1:500 dilution, anti-Src (Cell Signaling, #2110, Beverly, Mass.) at a 1:500 dilution, and anti-phospho Src (Y416) (Cell Signaling, #2113, Beverly, Mass.) at a 1:500 dilution. The secondary antibodies used were HRP-conjugated anti-goat IgG (Santa Cruz, Dallas, Tex.) and anti-rabbit IgG (Santa Cruz, Dallas, Tex.). Chemiluminescent signals were detected using Immun-Star HRP (BioRad, Hercules, Calif.).

B1: muRANK-Fc: murine RANKL antagonist (Amgen) (protein)
chain: VTPPCTQERHYEHLGRCCSRCEPGKYLSSKCTPTSDSVCLPCGPDEYLDTWNEEDKCLLHKVCDAGKALVAVDPGNHTAPRRCACTAGYHWNSDCECCRRNTECAPGFGAQHPLQLNKDTVCTPCLLGFFSDVFSSTDKCKPWTNCTLLGKLEAHQGTTESDVVCSSSMTLRRPPKEAQAYLPS
modifications: left off: a dimerising Fc or GST
[1]; WT mice, treatment began 3 days post injection, sacrificed 42 days post injection
  osteolysis from PyMT control tumors (no MSP): significantly impaired
[1]; caliper measurements
  tumor growth of PyMT control bone lesions: no significant effect on tumor growth
[2]
  MSP-induced increase in osteoclast resorption (resorption area): only slightly reduced
[3]
  phosphorylated c-Src in WT osteoclasts: decrease in phosphorylated c-Src
